Data published in article PMC3089910 (Analytical biochemistry, 2010).

Assays:
[1] = biological target: the molecule itself; assay: AUC
[2] = biological target: human lactoferrin (hLF), iron-free, in the presence of Zn2+ (human); assay: AUC

B1: rTp34, Tp34 from Treponema pallidum, in the presence of Zn2+ (natural protein)
chain: CGGGGEHQHGEEMMAAVPAPDAEGAAGFDEFPIGEDRDVGPLHVGGVYFQPVEMHPAPGAQPSKEEADCHIEADIHANEAGKDLGYGVGDFVPYLRVVAFLQKHGSEKVQKVMFAPMNAGDGPHYGANVKFEEGLGTYKVRFEIAAPSHDEYSLHIDEQTGVSGRFWSEPLVAEWDDFEWKGPQW
[1]
  stoichiometry N: 2
[2]
  stoichiometry N: 2
